The chains are these.
T1: htt^NTQ15K2 (Phe→Trp replacement at position 17 (stands in the printed letters))
T1 peptide: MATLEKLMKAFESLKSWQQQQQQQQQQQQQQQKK

T2: htt^NTQ25K2 (Phe→Trp replacement at position 17 (stands in the printed letters))
T2 peptide: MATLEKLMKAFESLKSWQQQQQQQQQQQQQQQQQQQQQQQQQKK

B1: htt^NTQ37P10K2 (peptide)
peptide: MATLEKLMKAFESLKSWQQQQQQQQQQQQQQQQQQQQQQQQQQQQQQQQQQQQQPPPPPPPPPPKK
B2: htt^NTQ10K2 (peptide)
peptide: MATLEKLMKAFESLKSFQQQQQQQQQQKK

The target of data set [1] is B2. Briefly: seeded elongation, HPLC sedimentation assay.
The target in data set [2] is T1, htt^NTQ15K2. Description: seeded elongation, HPLC sedimentation assay.
Data set [3] deals with T2, htt^NTQ25K2. Briefly: seeded elongation, HPLC sedimentation assay.
Data set [4] deals with the molecule itself. Briefly: AUC.

Where “and” joins values, the source holds several entries; their conditions need not be identical. Equal values may be shown once.

For B1, the entries for the “pseudo-first-order rate constant of seeded elongation” value in data set [1], in data set [2] and in data set [3] were 0.249 h⁻¹, 0.236 h⁻¹ and 0.316 h⁻¹, respectively.
For orientation: stoichiometry N means the number of molecules, sites or subunits per partner or assembly. As to B2, the “stoichiometry N” value in data set [4] was ~4 and ~8 and ~12.

For the origin of these results see paper PMC3568928 (Journal of molecular biology, 2011).
